These results are taken from patent US20190336574A1 (TRUSTEES OF PRINCETON UNIVERSITY, published 2019).

Where no end group is shown, it is not given here. CFP = cyan fluorescent protein

The Kd is the free concentration of one partner at which half of the binding sites on the other are occupied at equilibrium, for simple one-to-one binding. A lower Kd goes with a tighter complex.

For assay [1], the target named is His-SND1 (16-339), SN1/2 domains, wild type (human) (UniProt Q7KZF4). The assay can be described thus: GST titration pull-down: GST-MTDH (386-407) on glutathione resin, SND1 (SN1/2) at 10, 3, 1, 0.5, 0.25, 0.12 (the sheet prints mM, paragraph 254 says µM), SDS-PAGE, Coomassie blue.
Assay [2] has the same target. The assay can be described thus: GST pull-down on glutathione resin, SDS-PAGE, Coomassie blue; normalised percentage of binding, mean±SEM of three experiments.
Assay [3] deals with TC-FLASH-SND1 (tetracysteine peptide fused to SND1 (16-339), labelled with FlAsH) (human) (UniProt Q7KZF4). The assay can be described thus: FRET, 0.2 µM CFP-MTDH titrated with TC-FLASH-SND1 (0.25-8 µM).
Assay [4] concerns the target T1, HA-SND1, full-length human, wild type (human, UniProt Q7KZF4 1-910).
T1 construct: Full-length, HA-tagged; Expressed in HEK293T cells, tested in lysate; also called HA-tagged SND1; WT HA-SND1
T1 sequence: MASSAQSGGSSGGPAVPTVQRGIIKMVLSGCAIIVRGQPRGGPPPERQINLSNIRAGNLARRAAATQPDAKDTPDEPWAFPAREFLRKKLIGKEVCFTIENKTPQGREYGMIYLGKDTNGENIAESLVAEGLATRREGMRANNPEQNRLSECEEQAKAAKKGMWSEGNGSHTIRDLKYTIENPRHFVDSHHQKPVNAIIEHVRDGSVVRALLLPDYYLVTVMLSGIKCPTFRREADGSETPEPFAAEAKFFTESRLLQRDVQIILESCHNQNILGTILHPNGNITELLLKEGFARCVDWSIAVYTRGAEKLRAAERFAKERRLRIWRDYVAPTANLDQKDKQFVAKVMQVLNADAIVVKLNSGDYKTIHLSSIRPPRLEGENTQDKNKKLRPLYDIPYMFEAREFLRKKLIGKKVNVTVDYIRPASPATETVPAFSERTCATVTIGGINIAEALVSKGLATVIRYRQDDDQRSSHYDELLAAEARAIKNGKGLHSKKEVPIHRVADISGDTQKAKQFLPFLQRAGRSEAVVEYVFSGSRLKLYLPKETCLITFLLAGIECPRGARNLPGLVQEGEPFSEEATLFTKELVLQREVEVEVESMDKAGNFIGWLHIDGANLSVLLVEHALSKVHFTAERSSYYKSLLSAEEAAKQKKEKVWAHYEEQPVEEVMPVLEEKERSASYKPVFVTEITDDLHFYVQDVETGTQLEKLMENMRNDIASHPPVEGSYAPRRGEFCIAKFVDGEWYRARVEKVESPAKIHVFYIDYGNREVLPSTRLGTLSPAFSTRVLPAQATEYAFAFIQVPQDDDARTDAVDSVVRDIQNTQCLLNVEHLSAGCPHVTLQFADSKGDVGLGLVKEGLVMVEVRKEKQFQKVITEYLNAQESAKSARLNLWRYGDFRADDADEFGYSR
Briefly: anti-HA co-IP (as printed on the sheet) from HEK293T lysate, western blot. The source says:
The proteins bound to GS4B were examined on SDS-PAGE and visualized by Coomassie blue staining. […] The bound proteins were examined as in (FIG. 22A). For both (FIG. 22A) and (FIG. 22B), experiments were repeated three times; representative results are shown. The normalized percentage of binding was averaged from three experiments; mean±SEM was shown below the data. (FIG. 22C) HEK293T cells were transfected with human HA-SND1, WT Myc-MTDH or Myc-MTDH with indicated single point mutation. […] (FIG. 22D) HEK293T cells were transfected with human Myc-MTDH, WT HA-SND1 or mutant HA-SND1 with indicated single point mutations or deletions. […]
Immunoprecipitation and western blot: For in vivo immunoprecipitation (IP) experiments, cultured cells were washed in cold PBS and lysed in lysis buffer (20 mM Tris pH 7.4, 0.15 M NaCl, 1 mM EDTA, 1 mM EGTA, 1% Tx-100, 0.0025 M Na2P2O7, 1 mM β-glycerolphosphate, 1 mM Na3VO4, and 1 mM NaF) with an EDTA-free protease inhibitor mixture (Roche Applied Science) and PMSF. Cell lysates were then incubated on ice for 10 min, centrifuged, and precleared by incubating with protein A/G beads (Santa Cruz Biotechnology) for 1 h at 4° C. For IP bead preparation, 30 μl of protein A/G beads were incubated with 5 μg of antibodies for 2 h at 4° C. […]
Background: Immunoblotting shows a protein as a band on a membrane.

In assay [5] the target is human AGO2 (ectopically expressed in HEK293T cells) (human, UniProt Q9UKV8 1-859). The assay can be described thus: co-IP (anti-Myc) from HEK293T lysates, western blot.
Assay [6] concerns the target T1, HA-SND1, full-length human, wild type. The description is as above.

Sequence of human AGO2 (ectopically expressed in HEK293T cells) (Q9UKV8 whole entry): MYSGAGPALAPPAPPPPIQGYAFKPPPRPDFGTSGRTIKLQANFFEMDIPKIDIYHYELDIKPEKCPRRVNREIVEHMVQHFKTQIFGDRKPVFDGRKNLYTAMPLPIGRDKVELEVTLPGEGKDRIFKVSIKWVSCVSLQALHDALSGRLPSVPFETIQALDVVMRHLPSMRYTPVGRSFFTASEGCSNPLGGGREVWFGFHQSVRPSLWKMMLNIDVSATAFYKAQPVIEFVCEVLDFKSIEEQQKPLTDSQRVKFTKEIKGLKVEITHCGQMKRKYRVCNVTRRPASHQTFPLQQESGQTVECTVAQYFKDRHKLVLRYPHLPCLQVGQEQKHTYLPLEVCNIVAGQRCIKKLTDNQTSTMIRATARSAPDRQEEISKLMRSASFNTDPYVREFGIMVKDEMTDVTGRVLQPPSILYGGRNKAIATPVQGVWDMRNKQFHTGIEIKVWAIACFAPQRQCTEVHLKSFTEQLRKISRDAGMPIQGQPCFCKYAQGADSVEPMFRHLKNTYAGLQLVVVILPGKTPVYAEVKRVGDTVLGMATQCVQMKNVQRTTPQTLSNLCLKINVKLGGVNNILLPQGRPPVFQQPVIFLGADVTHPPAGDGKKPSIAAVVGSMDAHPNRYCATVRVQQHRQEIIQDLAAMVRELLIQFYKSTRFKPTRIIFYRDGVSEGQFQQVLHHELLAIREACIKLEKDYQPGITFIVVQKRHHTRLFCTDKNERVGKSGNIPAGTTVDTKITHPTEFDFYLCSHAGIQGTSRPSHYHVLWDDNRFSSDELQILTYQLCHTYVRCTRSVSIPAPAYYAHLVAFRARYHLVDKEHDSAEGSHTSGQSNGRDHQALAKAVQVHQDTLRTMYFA

Turning to PAE (397-399)→SQ, the Estimated Binding Affinity in assay [1] is 0.8 µM.

B1: GST-MTDH (364-582) W394D (protein, not shown: a dimerising Fc or GST)
chain: YQWDVSRNQPYIDDEWSGLNGLSSADPNSDDNAPAEEWGNWVDEERASLLKSQEPIPDDQKVSDDDKEKGEGALPTGKSKKKKKKKKKQGEDNSTAQDTEELEKEIREDLPVNTSKTRPKQEKAFSLKTISTSDPAEVLVKNSQPIKTLPPATSTEPSVILSKSDSDKSSSQVPPILQETDKSKSNTKQNSVPPSQTKSETSWESPKQIKKKKKARRET
In turn, B1 displayed a % Maximum binding in assay [2] of 4%.
{CFP}-SSADPNSDWNAPAEEWGNWVDE (peptide, not shown: large carriers, also: fused to CFP, whose letters are not given here) [CFP-MTDH fusion protein]: the Kd in assay [3] came to 900 nM.

B2: Myc-MTDH E399R, full-length human (other)
chain: MAARSWQDELAQQAEEGSARLREMLSVGLGFLRTELGLDLGLEPKRYPGWVILVGTGALGLLLLFLLGYGWAAACAGSRKKRRSPPRKREEAAAVPAAAPDDLALLKNLRSEEQKKKNRKKLSEKPKPNGRTVEVAEGEAVRTPQSVTAKQPPEIDKKNEKSKKNKKKSKSDAKAVQNSSRHDGKEVDEGAWETKISHREKRQQRKRDKVLTDSGSLDSTIPGIENTITVTTEQLTTASFPVGSKKNKGDSHLNVQVSNFKSGKGDSTLQVSSGLNENLTVNGGGWNEKSVKLSSQISAGEEKWNSVSPASAGKRKAEPSAWSQDTGDANTNGKDWGRSWSDRSIFSGIGSTAEPVSQSTTSDYQWDVSRNQPYIDDEWSGLNGLSSADPNSDWNAPAREWGNWVDEERASLLKSQEPIPDDQKVSDDDKEKGEGALPTGKSKKKKKKKKKQGEDNSTAQDTEELEKEIREDLPVNTSKTRPKQEKAFSLKTISTSDPAEVLVKNSQPIKTLPPATSTEPSVILSKSDSDKSSSQVPPILQETDKSKSNTKQNSVPPSQTKSETSWESPKQIKKKKKARRET
notes: Full-length, Myc-tagged; also called SPM21
In the case of B2, the binding result in assay [4] is given as “binds”.

B3: Myc-MTDH TPM2 (E399R, E400R, W401D), full-length human (other)
chain: MAARSWQDELAQQAEEGSARLREMLSVGLGFLRTELGLDLGLEPKRYPGWVILVGTGALGLLLLFLLGYGWAAACAGSRKKRRSPPRKREEAAAVPAAAPDDLALLKNLRSEEQKKKNRKKLSEKPKPNGRTVEVAEGEAVRTPQSVTAKQPPEIDKKNEKSKKNKKKSKSDAKAVQNSSRHDGKEVDEGAWETKISHREKRQQRKRDKVLTDSGSLDSTIPGIENTITVTTEQLTTASFPVGSKKNKGDSHLNVQVSNFKSGKGDSTLQVSSGLNENLTVNGGGWNEKSVKLSSQISAGEEKWNSVSPASAGKRKAEPSAWSQDTGDANTNGKDWGRSWSDRSIFSGIGSTAEPVSQSTTSDYQWDVSRNQPYIDDEWSGLNGLSSADPNSDWNAPARRDGNWVDEERASLLKSQEPIPDDQKVSDDDKEKGEGALPTGKSKKKKKKKKKQGEDNSTAQDTEELEKEIREDLPVNTSKTRPKQEKAFSLKTISTSDPAEVLVKNSQPIKTLPPATSTEPSVILSKSDSDKSSSQVPPILQETDKSKSNTKQNSVPPSQTKSETSWESPKQIKKKKKARRET
notes: Full-length, Myc-tagged; also called TPM2 MTDH
With B3, the values for the binding result in assay [5] and in assay [6] were “binds” and “no binding”, respectively.

B4: Myc-MTDH TPM1 (D389R, D393R, W394D), full-length human (other)
chain: MAARSWQDELAQQAEEGSARLREMLSVGLGFLRTELGLDLGLEPKRYPGWVILVGTGALGLLLLFLLGYGWAAACAGSRKKRRSPPRKREEAAAVPAAAPDDLALLKNLRSEEQKKKNRKKLSEKPKPNGRTVEVAEGEAVRTPQSVTAKQPPEIDKKNEKSKKNKKKSKSDAKAVQNSSRHDGKEVDEGAWETKISHREKRQQRKRDKVLTDSGSLDSTIPGIENTITVTTEQLTTASFPVGSKKNKGDSHLNVQVSNFKSGKGDSTLQVSSGLNENLTVNGGGWNEKSVKLSSQISAGEEKWNSVSPASAGKRKAEPSAWSQDTGDANTNGKDWGRSWSDRSIFSGIGSTAEPVSQSTTSDYQWDVSRNQPYIDDEWSGLNGLSSARPNSRDNAPAEEWGNWVDEERASLLKSQEPIPDDQKVSDDDKEKGEGALPTGKSKKKKKKKKKQGEDNSTAQDTEELEKEIREDLPVNTSKTRPKQEKAFSLKTISTSDPAEVLVKNSQPIKTLPPATSTEPSVILSKSDSDKSSSQVPPILQETDKSKSNTKQNSVPPSQTKSETSWESPKQIKKKKKARRET
notes: Full-length, Myc-tagged; also called TPM1 MTDH
Turning to B4, the binding result is listed as “binds” in assay [5] and “no binding” in assay [6].

B5: Myc-MTDH E400R, full-length human (other)
chain: MAARSWQDELAQQAEEGSARLREMLSVGLGFLRTELGLDLGLEPKRYPGWVILVGTGALGLLLLFLLGYGWAAACAGSRKKRRSPPRKREEAAAVPAAAPDDLALLKNLRSEEQKKKNRKKLSEKPKPNGRTVEVAEGEAVRTPQSVTAKQPPEIDKKNEKSKKNKKKSKSDAKAVQNSSRHDGKEVDEGAWETKISHREKRQQRKRDKVLTDSGSLDSTIPGIENTITVTTEQLTTASFPVGSKKNKGDSHLNVQVSNFKSGKGDSTLQVSSGLNENLTVNGGGWNEKSVKLSSQISAGEEKWNSVSPASAGKRKAEPSAWSQDTGDANTNGKDWGRSWSDRSIFSGIGSTAEPVSQSTTSDYQWDVSRNQPYIDDEWSGLNGLSSADPNSDWNAPAERWGNWVDEERASLLKSQEPIPDDQKVSDDDKEKGEGALPTGKSKKKKKKKKKQGEDNSTAQDTEELEKEIREDLPVNTSKTRPKQEKAFSLKTISTSDPAEVLVKNSQPIKTLPPATSTEPSVILSKSDSDKSSSQVPPILQETDKSKSNTKQNSVPPSQTKSETSWESPKQIKKKKKARRET
notes: Full-length, Myc-tagged; also called SPM22
Turning to B5, the binding result in assay [4] is recorded as “binds”.
